Reference: the supplement of paper PMC9170038

Test system: MS2 coat protein
Test: apparent KD of MS2 coat protein; higher = weaker reporter binding
Details: Eterna round: R107
Summary of the method: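 Apparent KD per design is the median of normalised cluster binding-curve fits. Designed RNA switches transcribed on-chip from Illumina sequencing clusters were titrated with SNAP-549-labelled MS2 coat protein in twofold steps from 0.7 or 1.5 nM to 3 µM, with 0.8–1.5 h down to 10–20 min per step. Buffer: 100 mM Tris-HCl pH 7.5, 80 mM KCl, 4 mM MgCl2, without or with constant ligand.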

[1] = input ligand: theophylline 20 uM
[2] = input ligand: tryptophan 2.4 mM
[3] = input ligand: theophylline 2 mM

| Sequence | apparent KD of MS2 coat protein (input ligand: arginine 13.2 mM) [nM] | apparent KD of MS2 coat protein [1] [nM] | apparent KD of MS2 coat protein [2] [nM] | apparent KD of MS2 coat protein (input ligand: none) [nM] | apparent KD of MS2 coat protein [3] [nM] |
| --- | --- | --- | --- | --- | --- |
| AGACAUGAGGAUCACCCAUGUAGCAUGGAUACCAGAUGUAGAUUUGUCCCUUGGCAGCUGUGGUAAAGUGAUGCAUUGCUCCUAG [Exclusion - Theophylline A (Freestyle 4)] | 34.4 | 61.5 | 33.3 | – | – |
| AGACAUGAGGAUCACCCAUGUAGUACGGAUACCAGAUCCAGAUUUAUCCCUUGGCAGCUGUGGUACAGCGUUGCAACGCUCCUAG [Exclusion - Theophylline A (Freestyle 15)] | 13.6 | 22.1 | 15.4 | – | – |
| AGACAUGUAAGAUAAUUGACUUUUACAGAUACCAGACUGUCUAAUGUCCCUUGGCAGCUGCAUUACAUGAGGAUCACCCAUGUUA [JR_ExcTheophyA_Sub011] | 15.9 | 20.3 | 17.5 | – | – |
| AGACAUGUAGGAUAAUUGACUAUUACAGAUACCAGACUGUCUAAUGUCCCUUGGCAGCUGCAUUACAUGAGGAUCACCCAUGUUA [JR_ExcTheophyA_Sub012] | 16.5 | 22.7 | 20.4 | – | – |
| AGACGAGAAGAGGUUUACCCAUGUACAGAAGGAGCGUCGUUGACGACAGGUAGGUCGCUGAAAACAUGAGGAUCACCCAUGUUGA [#05 Exclusion - Arginine A] | 62.9 | 35.3 | 31.7 | 31.1 | 39.7 |
| AGAGGUGCAACAGAUACCAGUCUACCGUACCUCAGAGAACAUGAGGAUCACCCAUGUAUAGACCCUUGGCAGCUGAUGUUAUUCA [Theo B Ex t3] | 25.7 | 36.7 | 22.4 | – | – |
| AGAGUUAGACAAAAGUCUAGCUCACCAGAAGGAGCGUCCGAAAGGACAGGUAGGUCGCUGGUACACGAGGAUCACCCGUGUUCCU [ArgAS 16 #OpenEnded #AlternativeMS2] | 27.6 | 40.4 | 36.8 | 38.6 | 50.3 |
| AGAGUUAGACAAAAGUCUAGCUCACCAGAAGGAGCGUCCGAAAGGACAGGUAGGUCGCUGGUACCUGAGGAUCACCCGGGUUCCU [ArgAS 17 #OpenEnded #AlternativeMS2] | 134 | 172 | 80.5 | 282 | 244 |
| AGAUCGCUGACCGCGGGAGAUGCGCAGGAUACCAGCCUAAUGUCCGGCCCUUGGCAGCCUGUAACAUGAGGAUCACCCAUGUGAA [theeternabot_exclusion_MS2_Theo_A_29] | 15 | 20.9 | 18.1 | – | – |
| AGAUCUUUCGAAAGAAGGAUAAUGGCUGAUACCAGAGACGAAAGUCUCCCUUGGCAGCAGUGCCAACAUGAGGAUCACCCAUGUA [Theophylline A 14] | 110 | 164 | 178 | – | – |
| AGAUCUUUCGAAAGAAGGAUCUUGGCUGAUACCAGAGACGAAAGUCUCCCUUGGCAGCAGUGCCAACAUGAGGAUCACCCAUGUA [Theophylline A 13] | 35 | 49.9 | 42.9 | – | – |
| AGAUGAGUCACGGCCGCCACUCACUUCAGGUUCACCCUUGGUUAACAUGAGGAUCACCCAUGUGGGAGGACCGGGUGAUGAGCAU [XTryp B #3] | 11.8 | 23.8 | – | – | 25.3 |
| AGAUGUAGCGGAAGGAGCGACAUGAGGAUCACCCAUGUCUCCCGUUAUGGGAGUUCCUUAGGUCAGGUAGGUCGCCGUUACGUCA [Omei Arg B SS B v1] | 105 | 143 | 105 | 146 | 226 |
| AGAUGUAGCGGAAGGAGCGACAUGAGGAUCACCCAUGUCUCCCGUUGUGGGAGUUCCUUAGGUCAGGUAGGUCGCCGUUACGUCA [Omei Arg B SS B v2] | 121 | 153 | 132 | 230 | 259 |
| AGAUUAAAGAGUGAUACCAGACUACAUGAGGAUCACCCAUGUUACAUUUGAGUAGCUUUAGUCCCUUGGCAGCACUUUAUGUACA [JR_Nu_ExcTheophyB_Sub023] | 45.4 | 42.9 | 54.2 | – | – |
| AGAUUCGACACGGCCGCCACUCGUGCCGGAUUACCGAGUGUCGAACAUGAGGAUCACCCAUGUACGAGGACCGGGUGUUGAGUCU [XTryp B #17] | 35.1 | 53.9 | – | – | 48.1 |
| AGAUUCGACACGGCCGCCACUUGGAGUGGCUGCUAGCAUGUUACACAUGAGGAUCACCCAUGUCUAAGGACCGGGUGUUGAGUCU [XTryp B #24] | 30.7 | 79.2 | – | – | 63.5 |

| Sequence | apparent KD of MS2 coat protein (input ligand: arginine 13.2 mM) [nM] | apparent KD of MS2 coat protein [1] [nM] | apparent KD of MS2 coat protein [2] [nM] | apparent KD of MS2 coat protein (input ligand: none) [nM] | apparent KD of MS2 coat protein [3] [nM] |
| --- | --- | --- | --- | --- | --- |
| AGAUUUAUUCUGACCGGGCUCAUUCCUGAAGGAGCGCAGAACAAUGCAGGUAGGUCGCAGGACAUGAGGAUCACCCAUGUCAGGC [Inmainzais] | 15.5 | 30.2 | 24.6 | 22.1 | 27.2 |
| AGCAACAAGUCGGCCGCCACUCAUAUUACAUGAGGAUCACCCAUGUUUACAUCAAGGUCAUAAUAGAGGACCGGGACAGUUGCAU [JR_SSTryptoB_Sub017] | 24.5 | 39.3 | – | – | 41.5 |
| AGCACUGUGACGGCCGCCACUACAUAAGUUGGGUGGUCAGGUUCAUUACAUGAGGAUCACCCAUGUAGGACCGGGUCUCAGUGCA [Omei Trp Exc B A v9] | 9.36 | 15.7 | 10.3 | 11.2 | 12.8 |
| AGCAUUGUAACAGAUACCAGACUUUUAAUGCCUCUAAUUACAUGAGGAUCACCCAUGUUUGUCCCUUGGCAGCUGUUAUGAUGCA [JR_ExcTheophyB_Sub009] | 84.1 | 174 | 125 | – | – |
| AGCCAUGGAAACAUGGCGGCGGCAUGAGCGCGAGGACCGGUACGGCCGCCACUCGGGCGACAUGAGGAUCACCCAUGUUCCUCAA [ETA NP+V+V2 #21] | 27.2 | 54.1 | 340 | 27.5 | 38.2 |
| AGCCCGUGAGCGGCCGCCACUGGAGGCUUUGCGCGACAUGAGGAUCACCCAUGUGUGCCCGGCGUUAGGACCGGGCUCACGUGGU [#1 Same State - Tryptophan B Attempt #20 (HarryS)] | 43.8 | 302 | 110 | 182 | 288 |
| AGCCCUGUGCUAGAUACCAGCUACAUGAGGAUCACCCAUGUGCGUCAGAAAUGACUGUGUAGCCCUUGGCAGCUACUCGCAUGUA [Exclusion - Theophylline B (Freestyle 6)] | 13 | 20.2 | 13.5 | – | – |
| AGCCCUGUGCUAGAUACCAGCUACAUGAGGAUCACCCAUGUGCGUCAGGACUGACUGUGUAGCCCUUGGCAGCUACUCGCAUGUA [Exclusion - Theophylline B (Freestyle 5)] | 14.4 | 20 | 14.5 | – | – |
| AGCCGAAACCUUGAUACCAGAUCAUGCUGCACAUGAGGAUCACCCAUGUCGUUAAACAUGGUCCCUUGGCAGCAAGUUAGGAUCU [Usustiusso] | 114 | 161 | 103 | – | – |
| AGCCGAACCACGGCCGCCACUGUAGACGUGACGAAAGUCGCGUCAACAUGAGGAUCACCCAUGUACAGGACCGGGUGGUCCGGCA [Omei Trp B SS A v2] | 9.09 | 11.2 | 6.75 | 8.68 | 8.09 |
| AGCCGCGUUCUUUCUUUCUUUCUAGCGGCACGAGGACCGGUACGGCCGCCACUCGAAGACAUGAGGAUCACCCAUGUAGUGGGUA [The Second Ring] | 47.4 | 142 | 206 | 123 | 109 |
| AGCCGGAUUACGGCCGCCACUGUAGACGUGACGAAAGUCGCGUCAACAUGAGGAUCACCCAUGUACAGGACCGGGUGGUCAGGCG [Omei Tryp B SS A v4] | 108 | 432 | – | – | 464 |
| AGCCUCAUACAUGAGGAUCACCCAUGUGAUACCAGUCAGGAAACUGACCCUUGGCAGCGCAUGAGGAUCACCCAUGCGCGAGGCA [Omei Theo A Exc A v1] | 40.1 | 123 | 36.8 | – | – |
| AGCCUCAUACAUGAGGAUCACCCAUGUGAUACCAGUCAGGAAACUGACCCUUGGCAGCGCAUGAGGAUCACCCAUGUGCGAGGCA [Omei Theo A Exc A v2] | 25.1 | 171 | 32.9 | – | – |
| AGCGACAUGAGGAUCACCCAUGUACAUUCCCGAGGACCGGUACGGCCGCCACUCGAUGGAAGUGGUAGCAGCUUGGAUGGGCCUA [theeternabot_sameState_MS2_Trp_A_23] | 14.5 | 20 | – | – | 17.8 |
| AGCGACAUGCAUGAUACCAGCUACAUGAGGAUCACCCAUGUACGUCAGUAAUGACUGUGUAGCCCUUGGCAGCAUAGAGCAUGUC [Exclusion - Theophylline B (Freestyle 16)] | 14.3 | 28.8 | 17.3 | – | – |
